This test has as its target thioredoxin glutathione reductase (TGR) from Mesocestoides vogae (Mesocestoides vogae (endogenous in tetrathyridium larvae)). As to the kind of experiment: SEC; 25%-50% ammonium sulfate fraction of the larval extract, dialysed against PBS, on HiLoad 16/600 Superdex 200 pg; TR and GR activities traced in the fractions. (In general: Size exclusion chromatography separates by hydrodynamic size, large species first.)

As usually defined, the stoichiometry N is a count of units in the complex or per binding partner.

Substance “thioredoxin glutathione reductase (TGR) from Mesocestoides vogae (enzyme)” returned a stoichiometry N of 2.

For the origin of these results see article PMC6332120.
